Data on 2 molecules can be found in paper PMC2807882, “Conservation of DNA-binding specificity and oligomerisation properties within the p53 family”.

Data set [1] deals with T1, ΔNp63γ (Homo sapiens, UniProt Q9H3D4-6 1-393).
T1 sequence: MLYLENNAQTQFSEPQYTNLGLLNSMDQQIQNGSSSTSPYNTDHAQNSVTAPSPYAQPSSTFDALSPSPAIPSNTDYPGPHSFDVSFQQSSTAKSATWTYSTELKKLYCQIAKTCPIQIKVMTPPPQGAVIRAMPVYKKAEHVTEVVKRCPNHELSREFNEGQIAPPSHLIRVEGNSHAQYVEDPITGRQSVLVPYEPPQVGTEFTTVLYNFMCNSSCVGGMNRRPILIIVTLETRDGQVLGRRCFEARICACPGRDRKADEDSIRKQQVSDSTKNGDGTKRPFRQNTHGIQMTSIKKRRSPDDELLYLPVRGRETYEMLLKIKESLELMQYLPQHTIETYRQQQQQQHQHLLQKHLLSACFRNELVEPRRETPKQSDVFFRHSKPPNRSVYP
Briefly: fluorescence anisotropy direct titration; 25 mM sodium phosphate (purification buffer pH 7.2), 225 mM NaCl, 10% v/v glycerol, 5 mM DTT, 0.2 mg/mL BSA, 22 C. The settings on record: protein: recombinant; tags: N-terminal 6xHis-lipoyl-TEV tag, cleaved; chain copies: 4; label: 5'-Alexa488. A general note: Fluorescence polarisation rises when a labelled molecule tumbles more slowly, as on binding a larger partner.

Data set [2] deals with T2, ΔNp73β (Homo sapiens, UniProt O15350-9 1-450).
T2 sequence: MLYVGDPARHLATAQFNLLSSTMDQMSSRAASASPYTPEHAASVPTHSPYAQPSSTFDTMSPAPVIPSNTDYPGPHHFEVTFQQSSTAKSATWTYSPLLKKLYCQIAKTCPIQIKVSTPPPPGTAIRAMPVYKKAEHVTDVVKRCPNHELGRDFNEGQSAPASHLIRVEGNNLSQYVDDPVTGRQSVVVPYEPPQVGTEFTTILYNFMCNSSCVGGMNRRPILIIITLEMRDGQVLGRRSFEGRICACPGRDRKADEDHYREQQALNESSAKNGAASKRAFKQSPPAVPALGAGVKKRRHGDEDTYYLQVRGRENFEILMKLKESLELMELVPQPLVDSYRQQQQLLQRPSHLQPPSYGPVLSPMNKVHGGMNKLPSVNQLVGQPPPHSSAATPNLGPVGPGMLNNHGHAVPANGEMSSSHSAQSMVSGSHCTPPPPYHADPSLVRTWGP
The data set is described as above. The settings on record: protein: recombinant; tags: N-terminal 6xHis-lipoyl-TEV tag, cleaved; chain copies: 4; label: 5'-Alexa488.

Data set [3] addresses T1, ΔNp63γ. Briefly: anisotropy competition; 25 mM NaPi, 225 mM NaCl, 10% v/v glycerol, 5 mM DTT, 0.2 mg/mL BSA, 22°C; 20 nM labelled DNA; pH not stated for the binding assay. The settings on record: protein: recombinant; tags: N-terminal 6xHis-lipoyl-TEV tag, cleaved; chain copies: 4.
The target in another data set is Mmp53 (Mus musculus, UniProt P02340 1-390). The data set is described as above. The settings on record: protein: recombinant; tags: N-terminal 6xHis-lipoyl-TEV tag, cleaved; chain copies: 4.
Mmp53, sequence (P02340 whole entry): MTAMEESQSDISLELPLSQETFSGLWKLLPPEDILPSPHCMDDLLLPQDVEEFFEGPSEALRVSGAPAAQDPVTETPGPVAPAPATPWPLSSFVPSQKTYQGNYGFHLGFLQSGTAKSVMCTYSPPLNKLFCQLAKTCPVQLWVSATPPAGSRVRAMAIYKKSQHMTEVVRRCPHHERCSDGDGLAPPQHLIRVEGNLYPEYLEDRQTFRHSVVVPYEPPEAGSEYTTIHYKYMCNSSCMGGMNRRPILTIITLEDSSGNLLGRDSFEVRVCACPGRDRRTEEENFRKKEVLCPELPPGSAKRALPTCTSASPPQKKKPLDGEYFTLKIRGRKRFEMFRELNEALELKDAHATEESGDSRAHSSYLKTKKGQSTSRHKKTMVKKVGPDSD
In the next data set the target is Hsp53 (Homo sapiens, UniProt P04637 1-393). The description is as above. The settings on record: protein: recombinant; tags: N-terminal 6xHis-lipoyl-TEV tag, cleaved; chain copies: 4.
Hsp53, sequence (P04637 whole entry): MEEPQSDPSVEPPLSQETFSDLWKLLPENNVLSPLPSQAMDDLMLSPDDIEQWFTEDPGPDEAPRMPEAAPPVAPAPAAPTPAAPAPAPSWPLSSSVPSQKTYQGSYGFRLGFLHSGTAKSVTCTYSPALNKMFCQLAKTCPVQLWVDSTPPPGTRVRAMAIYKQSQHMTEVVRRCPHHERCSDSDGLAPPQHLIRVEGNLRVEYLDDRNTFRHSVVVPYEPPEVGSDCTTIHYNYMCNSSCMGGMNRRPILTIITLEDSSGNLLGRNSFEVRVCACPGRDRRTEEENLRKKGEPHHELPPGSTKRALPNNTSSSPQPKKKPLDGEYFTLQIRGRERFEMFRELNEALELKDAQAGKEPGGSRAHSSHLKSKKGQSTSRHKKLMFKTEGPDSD
Data set [4] concerns the target T2, ΔNp73β. The data set is described as above. The settings on record: protein: recombinant; tags: N-terminal 6xHis-lipoyl-TEV tag, cleaved; chain copies: 4.
The target in the next data set is T3, p73CT (Homo sapiens, UniProt O15350 104-383).
T3 sequence: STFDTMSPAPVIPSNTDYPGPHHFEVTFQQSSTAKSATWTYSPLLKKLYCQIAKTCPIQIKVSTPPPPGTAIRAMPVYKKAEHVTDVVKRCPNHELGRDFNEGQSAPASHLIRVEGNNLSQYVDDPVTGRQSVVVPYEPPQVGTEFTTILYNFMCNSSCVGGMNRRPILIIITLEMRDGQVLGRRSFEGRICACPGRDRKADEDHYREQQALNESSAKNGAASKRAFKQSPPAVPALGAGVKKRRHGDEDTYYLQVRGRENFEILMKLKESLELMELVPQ
The data set is described as above. The settings on record: protein: recombinant; tags: N-terminal 6xHis-lipoyl-TEV tag, cleaved; chain copies: 4.

A further data set addresses T4, ΔNp63β (Homo sapiens, UniProt Q9H3D4-4 1-461).
T4 sequence: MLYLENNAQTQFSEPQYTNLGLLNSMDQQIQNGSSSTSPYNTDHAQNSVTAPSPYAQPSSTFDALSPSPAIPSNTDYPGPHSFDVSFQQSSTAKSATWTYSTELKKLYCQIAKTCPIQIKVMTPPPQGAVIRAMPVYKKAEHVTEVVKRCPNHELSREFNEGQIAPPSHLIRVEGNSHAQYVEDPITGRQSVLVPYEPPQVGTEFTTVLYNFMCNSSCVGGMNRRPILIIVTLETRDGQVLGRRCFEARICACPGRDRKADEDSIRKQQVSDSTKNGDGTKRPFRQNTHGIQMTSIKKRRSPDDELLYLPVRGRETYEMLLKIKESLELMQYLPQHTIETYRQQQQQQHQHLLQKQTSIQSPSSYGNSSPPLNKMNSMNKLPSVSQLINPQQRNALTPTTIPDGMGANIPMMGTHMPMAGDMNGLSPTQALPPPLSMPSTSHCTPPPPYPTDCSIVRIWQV
The description is as above. The following applies: protein: recombinant; tags: N-terminal 6xHis-lipoyl-TEV tag, cleaved; chain copies: 4.

B1: Ref_Alexa488 (dsDNA)
DNA 1: GGACATGTCCGGACATGTCC
DNA 2: GGACATGTCCGGACATGTCC
Regarding B1, the Kd in the data set with ΔNp63γ [1] stood at 67.6 nM; with ΔNp73β [2], 55 nM.

B2: Ref competitor (dsDNA)
DNA 1: CGCGGACATGTCCGGACATGTCCCGC
DNA 2: GCGGGACATGTCCGGACATGTCCGCG
On to B2, for which the Kd with ΔNp63γ [3] was -7.48 log10(M); in the data set with Mmp53, -6.88 log10(M); with Hsp53 it was -7.12 log10(M); with ΔNp73β [4] it was -7.62 log10(M); in the data set with p73CT, -6.83 log10(M); with ΔNp63β, -7.45 log10(M).

Broadly, the Kd is the equilibrium constant for the complex coming apart.
